Here are results for 27 sequences from the Immune Epitope Database (IEDB).

What all share (test): IEDB peptide-MHC binding, purified MHC/competitive/radioactivity; filed as Kd, often an IC50 or EC50 that approximates it; ≥ and ≤ were set here for values at or beyond the usual limits of such assays
Test [1] addresses HLA-A*24:02.
The target of test [2] is HLA-A*26:01.
For test [3], the target named is HLA-A*30:02.
The target of test [4] is HLA-A*29:02.
Test [5] has as its target HLA-A*23:01.
In test [6] the target is HLA-A*01:01.
The target of test [7] is HLA-B*44:03.
Test [8] addresses HLA-B*44:02.
Test [9] deals with HLA-B*08:01.
The mark [10] stands for this setting: source organism: SARS coronavirus Tor2.
[11] abbreviates: source organism: Dengue virus 4 Philippines/H241/1956.
Where [12] appears, read: source organism: Dengue virus 3 Martinique/1243/1999.
[13] abbreviates: source organism: Dengue virus 1 Brazil/97-11/1997.
The mark [14] stands for this setting: source organism: Mammarenavirus brazilense.
The mark [15] stands for this setting: source organism: Vaccinia virus WR.
[16] abbreviates: source organism: Mammarenavirus whitewaterense.
[17] abbreviates: source organism: Mammarenavirus lassaense.
Setting [18] is: source organism: Mammarenavirus guanaritoense.

As a reminder, the Kd is the equilibrium constant for the complex coming apart.

As for NYTQHTSSM, the Kd in [1] (setting [10]) is at least 91.8 µM; in [2] (setting [10]), 16.3 µM; in [3] (setting [10]) it was at least 81.1 µM; in test [4] (setting [10]), at least 45.2 µM; in [5] (setting [10]) it was at least 81.7 µM; in [6] (setting [10]), at least 57 µM.
On to REDLWCGSLI, for which the Kd in [7] (setting [11]) was 0.401 µM; in test [8] (setting [11]), 0.256 µM.
Take KRRLRTLIL: the Kd in test [9] (setting [12]) was 1 µM.
Take VEGVSGGAW: the Kd in test [7] (setting [11]) was found to be 0.114 µM; in [8] (setting [11]) it was 0.151 µM.
Take TLDESFLGRY: the Kd in test [1] (setting [10]) is at least 70.3 µM; in test [2] (setting [10]) it was 0.132 µM; in test [3] (setting [10]) it was 0.00832 µM; in test [4] (setting [10]), 0.155 µM; in [5] (setting [10]), at least 70 µM; in [6] (setting [10]) it was 0.00566 µM.
For AEPDDVDCW, the Kd in test [7] (setting [13]) amounted to 0.236 µM; in [8] (setting [13]), 0.0374 µM.
TYQNKVVKVL: the Kd in test [9] (setting [11]) turned out to be 0.155 µM.
On to EKWKKKLNQL, for which the Kd in [9] (setting [12]) worked out at 0.596 µM.
For NTNPIQLSSY, the Kd in test [1] (setting [10]) was at least 70.3 µM; in test [2] (setting [10]), 0.344 µM; in test [3] (setting [10]), 0.0742 µM; in [4] (setting [10]), 0.966 µM; in [5] (setting [10]), at least 70 µM; in [6] (setting [10]), 0.105 µM.
With VDICFWSTL, the Kd in [1] (setting [14]) is 5.63 µM; in test [2] (setting [14]) it was at least 77.9 µM; in test [3] (setting [14]), 9.76 µM; in test [4] (setting [14]) it was at least 78.9 µM; in [5] (setting [14]), 7.57 µM; in test [6] (setting [14]), 12 µM.
Take SQHQHLAIM: the Kd in test [9] (setting [15]) turned out to be 0.142 µM.
Regarding VFFGYFASHF, the Kd came to 0.00463 µM in [1] (setting [10]); 4.13 µM in [2] (setting [10]); 2.82 µM in test [3] (setting [10]); 0.000261 µM in test [4] (setting [10]); 0.000595 µM in test [5] (setting [10]); 12.9 µM in test [6] (setting [10]).
As for KFLTNKLLL, the Kd is 1.09 µM in test [1] (setting [10]); at least 61 µM in [2] (setting [10]); at least 27.3 µM in test [3] (setting [10]); at least 24.2 µM in test [4] (setting [10]); 0.379 µM in test [5] (setting [10]); at least 78.1 µM in test [6] (setting [10]).
For the sequence LRAQNALDNL, in test [9] (setting [13]), the Kd amounted to 1.36 µM.
Regarding LNYVIHKLF, the Kd in test [1] (setting [14]) was found to be 10.5 µM; in test [4] (setting [14]), 12.8 µM; in test [5] (setting [14]), 0.973 µM.
In the case of WDIKDPSLL, the Kd in test [1] (setting [16]) is at least 77.5 µM; in test [2] (setting [16]), at least 77.9 µM; in [3] (setting [16]), at least 34.8 µM; in test [4] (setting [16]) it was at least 27.6 µM; in test [5] (setting [16]), at least 77.7 µM; in test [6] (setting [16]), at least 42.3 µM.
For the sequence TPMLRHTIE, in test [9] (setting [12]), the Kd stood at 0.00336 µM.
Regarding EPGSSFKFL, the Kd in [9] (setting [15]) was 1.88 µM.
In the case of HYLCLNCLS, the Kd in test [2] (setting [17]) was at least 77.9 µM; in [3] (setting [17]), 14.2 µM; in [6] (setting [17]) it was 3.73 µM.
For CIAIGIITLY, the figures for the Kd in test [2] (setting [12]), in test [3] (setting [12]) and in [6] (setting [12]) were 0.121 µM, at least 69.7 µM and 7.45 µM, respectively.
Consider LRKLTSRENL, for which, in test [9] (setting [12]), the Kd was 4.95 µM.
Take AEMEEALKG: the figures for the Kd in test [7] (setting [12]) and in [8] (setting [12]) were 0.00534 µM and 0.0297 µM, respectively.
On to SYLRKFSAL, for which the Kd in [9] (setting [15]) came out at 0.00598 µM.
Turning to GSVGFNIDY, the Kd in test [1] (setting [10]) is at least 77.6 µM; in [2] (setting [10]) it was 10.2 µM; in [3] (setting [10]), 1.66 µM; in test [4] (setting [10]) it was 0.177 µM; in test [5] (setting [10]), at least 77.8 µM; in test [6] (setting [10]), 5.64 µM.
Regarding EFFDCFKYIL, the Kd was determined as 8.7 µM in test [1] (setting [18]), 0.645 µM in [4] (setting [18]) and 1.69 µM in [5] (setting [18]).
Regarding LEENMDVEIW, the values for the dissociation constant (Kd) in test [7] (setting [13]) and in test [8] (setting [13]) were 0.126 µM and 0.269 µM, respectively.
As to MADQAMTQMY, the Kd in [1] (setting [10]) was at least 70.3 µM; in test [2] (setting [10]), 2.83 µM; in test [3] (setting [10]), 0.127 µM; in test [4] (setting [10]), 0.00975 µM; in test [5] (setting [10]), at least 70 µM; in test [6] (setting [10]) it was 0.0184 µM.
